According to publication PMC10342849, “Feruloyl Esterase (LaFae) from Lactobacillus acidophilus: Structural Insights and Functional Characterization for Application in Ferulic Acid Production” (International Journal of Molecular Sciences, 2023):
One block for each molecule: values may come before it.

What was measured:
[1] = biological target: Feruloyl esterase (LaFae) from Lactobacillus acidophilus (Lactobacillus acidophilus); assay: AUC; 20 mM Tris-HCl (pH 8.0), ProteomeLab XL-A, sedimentation profile at 280 nm analysed with SEDFIT
[2] = biological target: Feruloyl esterase (LaFae) from Lactobacillus acidophilus (Lactobacillus acidophilus); assay: SEC; gel filtration on HiPrep S-200R column in 20 mM Tris-HCl (pH 8.0), molecular weight from a standard curve of protein standards
purified protein = substrate: CCCC(=O)Oc1ccc([N+](=O)[O-])cc1; assay: purified protein; assay type: biochemical, Lactobacillus acidophilus; conditions: hydrolysis; His6-tagged enzyme

percent of the sample in the dimer peak [1]: 95.3%
stoichiometry N [1]: 2
stoichiometry N [2]: 2
Molecule: Feruloyl esterase (LaFae) from Lactobacillus acidophilus (enzyme)

B1: LaFae (Lactobacillus acidophilus NCFM) (protein)
chain: MSRITIERDGLTLVGDREEPFGEIYDMAILMHGFTANRNTPLLRQIADNLRDENVASVRFDFNGHGESDGAFEDMTVCNEIADAQKILEYVRTDPHVRNIFLVGHSQGGVVASMLAGLYPDIVKKVVLLAPAAQLKDDALNGDTQGATYNPEHIPAAIPFHGKKLGGFYLRTAQVLPIYEIAKHYTNPVSIIVGSNDQVVAPKYSKKYDEVYENSELHMVPDADHSFTGQYKDSAVDLTAEFLKPLF
notes: His6-tagged, pET-21a (BamHI/XhoI), E. coli BL21(DE3); dimer in solution; catalytic triad Ser106, Asp197, His225
Km (purified protein): 1160 µM
